In patent US20260201030A1, “ANTIBODY, ANTIBODY-DRUG CONJUGATE THEREOF AND USE THEREOF” (EVOPOINT BIOSCIENCES CO., LTD., priority 2021, published 2026):

How the values were obtained:
human Claudin18.2 [1] = biological target: T1, human Claudin18.2 (Homo sapiens, UniProt P56856); assay: Cell-based ELISA affinity of humanized antibodies on HEK293T-Claudin18.2 (human) cells; format: binding; conditions: HEK293T-Claudin18.2 cells
T1 construct: expressed in transfected cells
Method: The affinity of the anti-human Claudin18.2 murine monoclonal antibodies was evaluated by cell-based ELISA. The experimental procedures were as follows: The day before the experiment, HEK293T-Claudin18.2 (human) cells were plated in a 96-well plate at 5×10^4 cells/well. On the day of the experiment, the supernatant was removed, the cells in each well were washed once with 300 μL of PBS, and 100 μL of 4% paraformaldehyde was added to each well for fixation at room temperature for 20 min. Paraformaldehyde was then removed, and the cells in each well were washed twice with 300 μL of PBS. 100 μL of 2% BSA (in PBS) was added to each well, and the mixture was blocked at 37° C. for 2 h. After removing the blocking solution, each antibody subjected to gradient dilution (diluted with 2% BSA (in PBS), starting at […], in a 3-fold gradient, for a total of 11 concentration points) was added to the plate at 100 μL/well, and the mixture was incubated at 37° C. for 2 h. The supernatant was removed, and the cells in each well were washed three times with 300 μL of PBST. 100 μL of an anti-mouse IgG HRP secondary antibody (Jackson, cat #115-035-003) in 2% BSA was added to each well, and the mixture was incubated at 37° C. for 1 h. The secondary antibody was then removed, and the cells in each well were washed five times with 300 μL of PBST, followed by the addition of 100 μL of a TMB substrate (Huzhou InnoReagents Co., Ltd.) per well for color development for 5-20 min. The reaction was stopped by adding 50 μL of 2 N HCl to each well, and OD450 nm values were read on a microplate reader (manufacturer: MD, model: SpectraMax). The values obtained were plotted by GraphPad Prism to calculate the EC50 value.
The affinity of the anti-human Claudin18.2 humanized monoclonal antibodies was determined by cell-based ELISA. The cell-based ELISA was conducted as described in Example I-3.

human Claudin18.2 [2] = biological target: T1, human Claudin18.2; assay: Cell ELISA affinity before and after conjugation, NUGC4 cells; format: binding; conditions: FIG. 8B
Method: The cell binding affinity of the antibody before and after conjugation to the toxin was detected according to a method similar to that described in Example 2.2. L929-claudin 18.2 (human) or NUGC4 cells were digested with trypsin, collected by centrifugation, washed three times with pre-cooled PBS, resuspended, added to a 96-well plate at 5×10^4 cells/well, and incubated overnight. The cells were fixed with 4% paraformaldehyde and blocked with 2% BSA (in PBS) at 37° C. for 2 h. Each ADC drug or antibody subjected to gradient dilution was added, and the mixture was incubated at 37° C. for 2 h. […] A TMB substrate was added for color development, and after the reaction was stopped by 2 M HCl, OD450 nm values were read on a microplate reader.

[3] = tested on: HEK293T-Claudin18.2 (human) cells; assay: CDC activity, guinea pig serum killing experiment; format: cell-based; conditions: 20% guinea pig serum, 5 h
Method: CDC activity of the anti-human Claudin18.2 humanized monoclonal antibodies was detected by a guinea pig serum killing experiment. The experimental procedures were as follows: HEK293T-Claudin18.2 (human) cells were digested, collected by centrifugation, plated at 50000 cells/well, and incubated overnight. The supernatant was discarded, and 100 μL of each test antibody subjected to gradient dilution with DMEM+20% guinea pig serum (Beijing Bersee, BM361Y) was added to each well. The mixture was incubated at 37° C. for 5 h, and 20 μL of a CCK8 reagent (Suzhou Rhino Bio, QDY-003-D) was added to each well. The mixture was allowed to react for 1-4 h, and readings were taken at 450 nm on a microplate reader.

human Claudin18.1 = biological target: T2, human Claudin18.1 (Homo sapiens, UniProt P56856); assay: FACS specificity of humanized antibodies on HEK293T-Claudin18.1 (human) cells; format: binding; conditions: antibody 50 μg/mL, PE secondary antibody
T2 construct: expressed in transfected cells
Method: The specificity of the anti-human Claudin18.2 humanized monoclonal antibodies was determined by flow cytometry (FACS). The experimental procedures were as follows: HEK293T-Claudin18.1 (human) cells were digested, collected by centrifugation, washed three times with pre-cooled PBS, resuspended in 1% BSA (in PBS), and added to a 96-well pointed bottom plate at 3×10^5 cells/well. Each test antibody with a final concentration of 50 μg/mL was added, and the mixture was incubated at 4° C. for 1 h. The cells were washed three times with pre-cooled PBS, and then 1 μL of a fluorescent secondary antibody (APC: Biolegend-410712 or PE: BioLegend-410708) was added to each well. The mixture was incubated at 4° C. for 0.5 h, and the cells were washed three times with pre-cooled PBS, then resuspended, and assayed on a flow cytometer. For reference, anti-human Claudin18.1 positive control antibodies (positive control antibody-1 and positive control antibody-2) were included in the experiment.

human Claudin18.2 [4] = biological target: T1, human Claudin18.2; assay: Cell-based FACS affinity on HEK293T-Claudin18.2 (human) cells; format: binding
Method: The affinity of the anti-human Claudin18.2 humanized antibodies was detected by flow cytometry. The experimental procedures were as follows: The adherent cultured HEK293T-Claudin18.2 (human), NUGC4-Claudin18.2 (human) and NUGC4 cells were digested, collected by centrifugation, and washed three times with pre-cooled PBS. The cells were resuspended in 1% BSA (in PBS) and added to a 96-well pointed bottom plate at 3×10^5 cells/well, with a volume of 50 μL per well. Each test antibody was diluted with 1% BSA (in PBS) (starting at 100 μg/mL, diluted in a 3-fold gradient, for 10 concentration points). The test antibody subjected to gradient dilution was added to the cells at 50 μL/well, and the mixture was well mixed and incubated at 4° C. for 1 h. The cells were collected by centrifugation, washed three times with pre-cooled PBS, and resuspended in 50 μL of 1% BSA (in PBS). 1 μL of a fluorescent secondary antibody (Biolegend-410712) was added to each well, and the mixture was well mixed and incubated at 4° C. for 0.5 h. The cells were collected by centrifugation, washed three times with pre-cooled PBS, resuspended in 200 μL of PBS, and assayed on a machine.

Affinity detected by cell-based ELISA (EC50, ng/mL) HEK293T-Claudin18.2 (human Claudin18.2 [1]) | change in affinity for the cells before and after conjugation (human Claudin18.2 [2]) | Mean PE fluorescence signal value (human Claudin18.1) | Median PE fluorescence signal value (human Claudin18.1) | Positive rate (%) (human Claudin18.1) | HEK293T-Claudin18.2 EC50 (human Claudin18.2 [4]) [µg/mL] | HEK293T-Claudin18.2 Maximum signal value (human Claudin18.2 [4]) | Molecule | CDC activity EC50 [3] [µg/mL]
11.15 ng/mL | no significant changes in the affinity | 583 | 504 | 0.54 | 0.292 | 113572 | 25C7A5-HZ1: humanized anti-Claudin18.2 antibody, VH SEQ ID NO: 1, VL SEQ ID NO: 2, human IgG1/Kappa constant regions (antibody, V domains shown, human IgG1/kappa constant regions) VH: QVQLVQSGAEVKKPGSSVKVSCKASGYTFTNYWLHWVRQAPGQGLEWMGMMHPISGSSNYAQKFQGRATLTVDKSTSTAYMELSSLRSEDTAVYYCARGLLSAMDYWGQGTLVTVSS VL: EIVLTQSPATLSLSPGERATLSCKASENVKTYVSWYQQKPGQSPRLLIYEASNRYTGVPARFSGSGSATDFTLTISSLEPEDFAVYFCGQTYSFPPTFGQGTKVEIK | 3.137
11.17 ± 2.19(N = 2) ng/mL | no significant changes in the affinity | 559 | 471 | 0.55 | 0.2928 | 119070 | 25C7A5-HZ2: humanized anti-Claudin18.2 antibody, VH SEQ ID NO: 3, VL SEQ ID NO: 2, human IgG1/Kappa constant regions (antibody, V domains shown, human IgG1/kappa constant regions) VH: QVQLVESGAEVKKPGSSVKVSCKASGYTFTNYWLHWVRQAPGQGLEWMGMMHPISGSSNYAQKFQGRATLTVDKSTSTAYMELSSLRSEDTAVYYCARGLLSAMDYWGQGTLVTVSS VL: EIVLTQSPATLSLSPGERATLSCKASENVKTYVSWYQQKPGQSPRLLIYEASNRYTGVPARFSGSGSATDFTLTISSLEPEDFAVYFCGQTYSFPPTFGQGTKVEIK | 3.283
